The DeepSol protein solubility set

assay: soluble on expression in E. coli; label from the status in PepcDB or PDB records

| Sequence | soluble on expression in E. coli |
| --- | --- |
| MGHHHHHHSHMAGPVKDREAFQRLNFLYQAAHCVLAQDPENQALARFYCYTERTIAKRLVLRRDPSVKRTLCRGCSSLLVPGLTCTQRQRRCRGQRWTVQTCLTCQRSQRFLNDPGHLLWGDRPEAQLGSQADSKPLQPLPNTAHSISDRLPEEKMQTQGSSNQ | not soluble |
| MHFHVNNVVTSSQIDDVLVKICTGPLFDNGTPFITYGCVLHLSSERGIIRTFDEKLCLFELKDLNMDGVVDMTDVLPLGCTLKFFATRQNHHTFTASNVSPICEPAAQLIFLNSTEMNVITPDFTSTGSSNHYSVEKERFAYVRILELFQQQAVLSLPLSSMISELGKFGEDDVSQYIGISDEERGMFIKRRTHLFTVGWNDLVTLQSPDFYQAIVLILSYILCNGGVTSTENVFEFYQTDNVPLSVRQRTGSDMNSFREIIDFHSWAFTLSSHGTYVSAKRNLPHFDYMSFFEGIVCTATPQRHQKSKLLKHPPGLQIPLLNTRAQALGQASMHQQQQEHISNPYQGYQPYLHREDMTNGMKKPTGTLIDGANQKHCFGMQVSSPDRNAFEKPSVFGHTWGDVIAFNKNSANFSRGMQSKRRYNLSSMFRNLKYSGFRSSIDSTSSSDDSQSLDNCSTSGVNNMLIGCGPQMY | not soluble |
| MEVDKKDEREAESSEQVVNPWEVSAKDGGKIDYDKLIDKFGCQRLDESLIDRVQRLTSRQPHVFLRRSVFFAHRDFNEILDAYERGDKFYLYTGRGPSSEALHLGHLIPFMFTKYLQEAFKVPLVIQLTDDEKSIWKNLSVEESQRLARENAKDIIACGFDVTKTFIFSDFDYVGGAFYKNMVKVGKCVTLNKAMGIFGFSGEDPIAKLSFPPVQAVPSFPSSFPHLFPGKDNLRCLIPCAIDQDPYFRMTRDVAPRLGYSKPALIESTFFPALQGENGKMSASDPNSAIYVTDSAKDIKNKINRYAFSGGQDSIEKHRELGANLEVDIPVKYLSFFLEDDSELEHIKKEYGEGRMLTGEVKKRLTEVLTEIVERHRRARAAVTDEMVDAFMAVRPLPSMFE | soluble |
| MLKKYLISLDKDIQRRELFFSQKNTEDFQVFSAINTMQKDWDELAAIFNIEQFKAHYFRNVTKGEIGCTLSHLSVYQKIVEDNDIAEDSYALVCEDDALFHSDFQQNLTALLSEKLEAEIILLGQSKINDFNDFDLEINYPTTFSFLCKKTGDVNYAFPYKSYFAGTVGYLIKKSAARRFIQQISQNKPFWLADDFLLFEQNFNIRNKVVRPLIVIENPVLISNLESVRGSLSNNLLKKLMKYPLKKIFAIKKNLAN | soluble |
| MLAQRGTFAECGAEVLAVAMSPGRRHITKPVCEITFGLRESNVLTSTMVLNAGAGVPHDAPASGGTLFGLTDKEVEQMSNFKLLVIHLGGVKNHLIYKARLILRNVNKPCIIICESPVDCEDFAKIGVKTSKVMPSEEDVKTEGHIVDIVSGVIRGETISQEKLDEIIRKVKLALGDALEHHHHHH | soluble |
| MSLRTSYKIYCTYKNIHAWYDAIKCGIDAAVKELAEKGVTVDYEWYGPAQPDAVDQVNSIETAIGQGWDLIAVDVNQPELTGEAINNAVAKGIPVAVFGTSDVPNCDRAFFVGNTDPYGDGCALAKAVCEKMGGKGQIAILAGTIGALAHEERLRGFKDTIAKYPDIEIVDEQRDNDEVEKAISITESWLQAYPNLGGILCNNMSNPVGACQAVADAGKSGKIVIGGMDHDLRALNALKDGTLYVAQVQNCYDMGYKLIYNAIKTIDGEKVEESTAVGSTSVYAQDADKFINMLYGEANEGHHHHHH | soluble |
| MRHFDIAITGAGLAGQIAAIALARAGRHVALIAPSSEKKDQRTTALMDQSIRFMDRLGLWSRIAPSAARLSTMQIIDGTDRLLRAPTVQFRSSEIGLDAFGWNIPNEALLGVLSEAVEQEHNITRLDTTAETIDIGNDRISVTIADGEVLSADFLIGADGRKSMVREAAGIGVKSWSYPQTAVVLNFSHSRPHGNVSTEFHTPTGPFTQVPLPDDRSSLVWVVTPQQAEELTALPLETLSLKVEERMQSMLGAVTVENSVQAWPLSSMTAHRFGKGRVALIGEAAHGFPPIGAQGLNLSLRDIIALTELLGAVSDRPIAADAGSSFDRKRRADVYSRTLSVDLLNRSLLSDFLPVQMARAAGLHVLSGIGTLRSMVMREGIEPGRGLKALPSLLFGSFKKAGLEHHHHHH | soluble |
| MEKIFKVTSDSGIHARPATLLVNTASKFGSDINLEYNGKNVNLKSIMGVMSLGIQQNAEIKITANGDDAAQALAAIEETMKNEGLGE | not soluble |
| TCSQPNNFPAEIPLYKQSFKNWAGDIKVDDVWTCAPRSADEVVKVANWAKDNGYKVRARGMMHNWSPLTLAAGVSCPAVVLLDTTRYLTAMSIDASGPVAKVTAQAGITMEALLTGLEKAGLGVTAAPAPGDLTLGGVLAINGHGTAIPAKGERRLAGASYGSISNLVLSLTAVVYDKASGAYALRKFARNDPQIAPLLAHVGRSLIVEATLQAAPNQRLRCQSWFNIPYGEMFAAAGSGGRTFASYLDSAGRVEAIWFPFTSNPWLKVWTVTPNKPLFSRQTDKPFNYPFSDNLPDEVTDLANKILSLGDGKLTPAFGKAQFAAASAGLVATASWDLWGWSKNLLLYVKPTTLRVTANGYAVLTRRENVQRVLNEFVTFYQARVQAYQQQGRYPMNGPVEIRVTGLDDPSEAALSGGVAPALSAIRPRPDHPEWNVAVWLDILTLPGTPYANQFYREIEQWIEANFNGSYAAVRPEWSKGWGYTDQAAWADSAMLQTTIPNAFRAGQPAAANWDAAKAALAAYDPYRLFSSPLLDSLGL | soluble |
| CTRAVYIGPDHMVVTGRTMDWKEDIMSNIYVFPRGIQRAGYNKENAVKWTSKYGSVIATGYDIGTCDGMNEKGLVASLLFLPESVFDRPGDTRPVMGISIWTQYVLDNFATVHEAVEELKKESFRIDAPHMPNGSASTLHLAITDETGNTAVLEYLDGNLSIHEGKEFQVMTNSPRYDYQLAINDYWKEVGGLQMLPGTNRSSDRFVRASFYIHAIPQTPDAKIAVPSVLSVMRNVSVPFGITTPDKPHISSTRWRSVSDQKNKIYYFESVMTPNLFWLDLKKIDFSPKAGIKKLPLTNGKIY | not soluble |
| MSLKQINIQKFITAKRIAKYSSLESYKLNILESQKYYSSLSILEVSLRNAIDFYFTERYGESWTDLLDIFKYKEISKIEEAKNFLKLKQEECTKDKIVAELNFGFCTSLFSKTYEEQMRKNNLIKIFNNLPKNKQINRAYLSRKLNNIRNFRNRIFHYEKIINKPEYLNIENDINEILEFLDKEILGFSIGLNIEGHHHHHH | soluble |
| MEANTSSSGTVTGQRFAERRRSLPPGAELRQRLLKQLKELCDQIGKAYSTLVQKAALVIEPADQAVSLEPDTQRQATCITNLSDEGELWTTVYELNLGVQNLLMFIEDIRLLLLTQAQVPGPSVEENGLKTAGKGGCSPTELEGARFSDRLSSSNTHRFLEQLWDRYTP | soluble |
| MSSAWKTPRGSDAMPEIMVKIIGSKHFQYLVEKPKIKENDSLKTETQTMHQKPMTDNARQMSRDTPVPINFTDQQTTDNPDDVKEKKHPENNQKSENNQKLLTGANSSRFLDGNIPSQANVHCSSVPTGDQSLSYVHGIPRRKLRDWSLEQMVRGSSDQPEDIGQSPSGTTNEDAFLLALVRRELKSRPLSSNLLEKLQKELKILDPISSGFLLQSQLSRLFLKHEVPLQLPTVKILCQRFSKRGSPEMVNYEKLLWFLNSAASDYPQQNKAAADLRKTESHGTHSQSTPPQHSSSQPEVNRSLLEILKMALRTTNGRLNIDNLNLSFRKEDRSFSGCLPLPKVRAICGKHGLYLTLSLLETLLNHQDLGYQNEIKWQNFVEMLTRASSDLLSDLPTGKNEKKAPAPPMEPEVPEMSQSKTEHMKTPEEELQPESSPAETSACKDPLKPLKIRPVSQPFVNPAVKNKAEECETWIDRFRKLENALYLCDLSNTGVLEKERARRLIHNYNLIYNLSLSPQKIDQALRRFRSGENMLLEPALRYLKEL | not soluble |
| MGSDKIHHHHHHMSEFDVAVIGAGPAGSSAAIRLAQNGMNVLLVERGDPPGTKNVSGAVLWGNELAKVVPDWERSAPVERYVTRKEVAFLTEKSKIAISFSSEELQNSKSGKIIVRGKFDQWLAKKAKDAGAMLVTGVTVDRLAIDNGKVIGIQQDNDVITADAVVVAEGANPRVLINSGLRPKLSDRDVALGIKETIKLPENVINERFNVDSKSGFASEFVLGFLDDGLLSGGFLYTNKDTVSLGIVASLDRLRANGVTHSYDIMGKFEEHPFIKNLIKDGIPDEYAAHLVPEGGISSMPKLYGNGYLVAGDAAAFTFSNGMVLQGINYAITSGILAADTIIENRNNINENTLAKYVDKLRESYVLSDLYNFNGIQNVTWSDFVQKSLPTLAESVMMSLFDEKGMPKKHLRQIVTDAMKSGHMKYSDLITNGYRVIKRM | not soluble |
| MSLLQTKDYEFWFVTGSQHLYGEETLELVDQHAKSICEGLSGISSRYKITHKPVVTSPETIRELLREAEYSETCAGIITWMHTFSPAKMWIEGLSSYQKPLMHLHTQYNRDIPWGTIDMDFMNSNQSAHGDREYGYINSRMGLSRKVIAGYWDDEEVKKEMSQWMDTAAALNESRHIKVARFGDNMRHVAVTDGDKVGAHIQFGWQVDGYGIGDLVEVMDRITDDEVDTLYAEYDRLYVISEETKRDEAKVASIKEQAKIELGLTAFLEQGGYTAFTTSFEVLHGMKQLPGLAVQRLMEKGYGFAGEGDWKTAALVRMMKIMAKGKRTSFMEDYTYHFEPGNEMILGSHMLEVCPTVALDQPKIEVHSLSIGGKEDPARLVFNGISGSAIQASIVDIGGRFRLVLNEVNGQEIEKDMPNLPVARVLWKPEPSLKTAAEAWILAGGAHHTCLSYELTAEQMLDWAEMAGIESVLISRDTTIHKLKHELKWNEALYRLQKEGHHHHHH | soluble |
| AGTYNYGEALQKSIMFYEFQRSGDLPADKRDNWRDDSGMKDGSDVGVDLTGGWYDAGDHVKFNLPMSYTSAMLAWSLYEDKDAYDKSGQTKYIMDGIKWANDYFIKCNPTPGVYYYQVGDGGKDHSWWGPAEVMQMERPSFKVDASKPGSAVCASTAASLASAAVVFKSSDPTYAEKCISHAKNLFDMADKAKSDAGYTAASGYYSSSSFYDDLSWAAVWLYLATNDSTYLDKAESYVPNWGKEQQTDIIAYKWGQCWDDVHYGAELLLAKLTNKQLYKDSIEMNLDFWTTGVNGTRVSYTPKGLAWLFQWGSLRHATTQAFLAGVYAEWEGCTPSKVSVYKDFLKSQIDYALGSTGRSFVVGYGVNPPQHPHHRTAHGSWTDQMTSPTYHRHTIYGALVGGPDNADGYTDEINNYVNNEIACDYNAGFTGALAKMYKHSGGDPIPNFKAIEKITNDEVIIKAGLNSTGPNYTEIKAVVYNQTGWPARVTDKISFKYFMDLSEIVAAGIDPLSLVTSSNYSEGKNTKVSGVLPWDVSNNVYYVNVDLTGENIYPGGQSACRREVQFRIAAPQGTTYWNPKNDFSYDGLPTTSTVNTVTNIPVYDNGVKVFGNEP | soluble |
| GSAMRSAQVYRWQIPMDAGVVLRDRRLKTRDGLYVCLREGEREGWGEISPLPGFSQETWEEAQSVLLAWVNNWLAGDCELPQMPSVAFGVSCALAELTDTLPQAANYRAAPLCNGDPDDLILKLADMPGEKVAKVKVGLYEAVRDGMVVNLLLEAIPDLHLRLDANRAWTPLKGQQFAKYVNPDYRDRIAFLEEPCKTRDDSRAFARETGIAIAWDESLREPDFAFVAEEGVRAVVIKPTLTGSLEKVREQVQAAHALGLTAVISSSIESSLGLTQLARIAAWLTPDTIPGLDTLDLMQAQQVRRWPGSTLPVVEVDALERLL | soluble |
